This series deals with hATP5A1 pre-protein (F1-ATP synthase subunit alpha precursor) (Homo sapiens, UniProt P25705). Nature of the series: EMSA.

For the molecule CUUUCCGCUCGGCUGUUUUCCUGCGCAGGAGCCGCA (ssRNA) [RPL13 RNA ligand], the binding result was “binds”.

For the origin of these results see paper doi:10.1101/2024.08.19.608659.
